Assay results: US11834472B2, “Anti-IL-22 antibodies, antibody fragments, their immunoconjugates and uses thereof” (BioAtla, Inc., priority 2018, dated 2023)

Legend:
[1] = Pharmacokinetics in NOD SCID mice, plasma concentration by solid phase ELISA; format: in vivo, mouse; settings: after a 10 mg/kg IV injection
Procedure: The pharmacokinetics of the mutant antibodies of Table 1 were analyzed in mice. The antibodies were injected into mice by IV injection at two doses 0.3 mg/kg and 10 mg/kg. The concentrations of the injected antibodies in the blood plasma were measured by solid phase ELISA.
Two anti-IL-22 antibodies CPS02 and CPS09 were tested in NOD SCID mice. The antibodies were injected via IV at two dosages: 0.3 mg/kg and 10 mg/kg. Three mice were used for each dose group. Blood samples were retrieved from the mice at 10 min, 1 h, 3 h 7 h, 24 h, 48 h, 96 h, 168 h, 240 h and 336 h after the IV injection. The concentrations of the injected antibodies in the blood samples were measured by solid phase ELISA.

[2] = Aggregate formation at 10 mg/mL in PBS; format: physicochemical
[3] = biological target: T1, mouse IL-22 (mIL-22) (Mus musculus, UniProt Q9JJY9); experiment: Inhibition of mIL-22 induced Stat3 phosphorylation in HepG2 cells; format: cell-based; settings: mAb 6.7 nM
T1 sequence (Q9JJY9 34-179): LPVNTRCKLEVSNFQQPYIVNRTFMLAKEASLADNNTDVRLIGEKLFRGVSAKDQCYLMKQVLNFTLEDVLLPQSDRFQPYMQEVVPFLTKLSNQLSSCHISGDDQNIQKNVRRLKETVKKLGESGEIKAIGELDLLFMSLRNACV
Procedure: One of the immediate functions of IL-22 is inducing phosphorylation of Stat3, a protein in the signaling pathway of IL-22. The 10 antibodies of Table 1 were tested in a cell-based assay for blocking IL-22-dependent phosphorylation of Stat3 through human or mouse IL-22 in HepG2 cells. Antibody hum10 and mutant CPE-LC-E049K were used as controls. Four concentrations of each of the antibodies were used: 0.11 μg/mL, 0.33 μg/mL, 1 μg/mL, and 3 μg/mL.
30,000 human HepG2 cells were seeded in 96 well plates and serum starved overnight. Three-fold dilutions of anti-IL-22 antibodies and control hum10 antibody at concentrations of 0.11 μg/mL, 0.33 μg/mL, 1 μg/mL, and 3 μg/mL were incubated with 200 ng/ml of hIL-22 or mIL-22 at 37° C. for one hour then added to the serum starved human HepG2 cells. The HepG2 cells were incubated with the antibody-IL-22 mixture at 37° C. for 20 minutes. After incubation, HepG2 cells were washed with PBS and lysed. Half of the cell lysate was used to determine the level of phosphorylated Stat3 using Cell Signaling kit #7300 following the vendor's protocol and the other half of the cell lysate was used to determine the level of total Stat3 by Western blot analysis using a Santa Cruz rabbit polyclonal antibody (Sc-7179) against human Stat3.

[4] = tested on: imiquimod (IMQ) induced psoriasis; format: in vivo
Excerpt: Two anti-IL-22 antibodies of the present invention, CPS02 and CPS09, were used for the treatment of imiquimod (IMQ) induced psoriasis in mice (FIG. 12). The mice were male BALB/c mice, which were an albino, laboratory-bred strain of the house mouse. A total of 70 mice, at a body weight of 18-20 g, were acclimated for 7 days before induction of psoriasis.
The 70 mice were randomized into 7 groups (10 mice in each group). One group (group 1) was used as a negative control to which no imiquimod was administered to the mice, which was instead replaced with Vaseline. […] The other 6 groups (groups 2-7) were dosed topically with imiquimod at a dosage of 82.5 mg/mouse (5% cream) once daily (qd) for 8 consecutive days from day 0 to day 7 (20 mg for the left ear, 62.5 mg for the shaved back) to induce psoriasis. The back skin was shaved to expose an area of 2×3 cm^2. For the Vaseline control group, the Vaseline was also applied at 82.5 mg/mouse once daily (qd) for 8 consecutive days (20 mg for left ear, 62.5 mg for the shaved back) from day 0 to day 7.
Group 2 was a group of psoriasis-induced mice that were untreated to serve as a control group. The treatment period completely overlapped with the imiquimod application period (day 0 to day 7). For group 2, the mice received both imiquimod and […] on each day of the 8-day period (day 0 to day 7). For the groups that received intravenous (I.V.) injection, the imiquimod was applied within one hour after the I.V. injection on days 0 and 3.
Group 3 was treated with the steroid dexamethasone, which is a current therapeutic treatment used for psoriasis. The dexamethasone was topically applied twice a day (BID) for 8 days. Group 4 was treated with phosphate-buffered saline (PBS), which served as a negative control. Group 5 was treated with an isotype control antibody that also served as a negative control. Groups 6-7 were treated with the anti-IL22 antibodies CPS02 (A) and CPS09 (B), respectively. The treatments for Groups 4-7 were administered by a single intravenous (I.V.) injection on each of days 0 and 3. 3 mice in group 6 died on day 0 and 2 died on day 1. On day 3, the I.V. injection dosage for this group was decreased to 10 mg/kg.
During the 8 day treatment period, the ear thickness was measured on days 0, 3, 5 and 7. The body weight and various skin scores were recorded daily. Pictures of the psoriasis sites were taken on days 0, 3, 5 and 7. On days 1 and 4, about 60 μl blood was collected via retro-orbital bleeding over 24 hours and placed in BD Microtainer® tubes coated with dipotassium ethylenediaminetetraacetic acid (K2EDTA). Plasma was then collected (to get at least 20 μl plasma) and stored at −80° C.
Skin scores for erythema, scales and thickness were measured daily according to an established grading system. The erythema, scales and thickness were scored independently on a scale of from 0 to 4: 0 means none, 1 means slight, 2 means moderate, 3 means marked, and 4 means very marked. The cumulative (total) skin score was also calculated.
The effects of the treatments were analyzed statistically using two-way analysis of variance (ANOVA, Bonferroni post-tests) or one-way ANOVA analysis. For comparisons between the treatment groups and the control group, the p value is denoted in FIGS. 13-18 as (*) if less than 0.05, (**) if less than 0.01, or (***) if less than 0.001.

[5] = group 6 (10 mice), 20 mg/kg I.V. on day 0

B1: CPS02: mutant anti-IL-22 antibody binding human and mouse IL-22; light chain LC-06, heavy chain HC-08 (antibody, V domains shown)
VH: QVQLVQSGAEVKKPGASVKVSCKASGYIFRSYWIHWIRQPPGKGLEWIGRIYPGTGRTYYNEKFKGRVTISADKSISTAYLQWSSLKASDTAMYYCARSYDSSVAYWGQGTLVTVSS
VL: AIQLTQSPSSLSASVGDRVTITCSASSSVSYMHWYLQKPGQSPQLLIYKTRKLASGVPSRFSGSGSGTDFTFTISSLEAEDAATYYCQQWSSNPYITFGQGTKVEIKR
Question: Which half-life in mice [1] does the source give for B1 here?
Answer: about 18 hours

Question: What about the “Aggregate formation at 10 mg/mL in PBS” value [2] of the same molecule?
Answer: no

Question: And the “STAT3 Phosphorylation; mIL22 % inhibition” value [3]?
Answer: 76.18%

Question: What about the “reduction in body weight of the treated mice” value ([4]; IMQ psoriasis mice, days 0-7, in comparison to dexamethasone / PBS (FIG. 13)) of the same molecule?
Answer: less reduction in body weight

Question: And the “mice died on day 0” value [4, 5]?
Answer: 3 mice

Question: And the “mice died on day 1” value [4, 5]?
Answer: 2 mice

Question: What about the ear skin thickness ([4]; vs negative controls (isotype matched antibody, PBS, vehicle) (FIG. 14)) of the same molecule?
Answer: less

Question: And the skin erythema score ([4]; vs negative controls (isotype matched antibody, PBS, vehicle) (FIG. 15))?
Answer: lower

Question: And the skin scale score ([4]; vs negative controls (isotype matched antibody, PBS, vehicle) (FIG. 16))?
Answer: lower

Question: And the skin thickness ([4]; vs negative controls (isotype matched antibody, PBS, vehicle) (FIG. 17))?
Answer: lower

Question: And the total skin score ([4]; vs negative controls (isotype matched antibody, PBS, vehicle) (FIG. 18))?
Answer: lower
